The values that follow are results of earlier work, collected in article PMC4105053.

Data set [1] deals with MMOB (Methylococcus capsulatus) (UniProt P18797).
The target of data set [2] is MMOR Fd (Methylococcus capsulatus) (UniProt P22868).
Sequence of MMOR Fd (Methylococcus capsulatus) (P22868 1-98): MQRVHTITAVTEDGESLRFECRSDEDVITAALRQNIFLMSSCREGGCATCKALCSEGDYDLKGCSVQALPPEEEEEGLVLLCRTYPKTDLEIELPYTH

Sequence of MMOH (P22869 whole entry): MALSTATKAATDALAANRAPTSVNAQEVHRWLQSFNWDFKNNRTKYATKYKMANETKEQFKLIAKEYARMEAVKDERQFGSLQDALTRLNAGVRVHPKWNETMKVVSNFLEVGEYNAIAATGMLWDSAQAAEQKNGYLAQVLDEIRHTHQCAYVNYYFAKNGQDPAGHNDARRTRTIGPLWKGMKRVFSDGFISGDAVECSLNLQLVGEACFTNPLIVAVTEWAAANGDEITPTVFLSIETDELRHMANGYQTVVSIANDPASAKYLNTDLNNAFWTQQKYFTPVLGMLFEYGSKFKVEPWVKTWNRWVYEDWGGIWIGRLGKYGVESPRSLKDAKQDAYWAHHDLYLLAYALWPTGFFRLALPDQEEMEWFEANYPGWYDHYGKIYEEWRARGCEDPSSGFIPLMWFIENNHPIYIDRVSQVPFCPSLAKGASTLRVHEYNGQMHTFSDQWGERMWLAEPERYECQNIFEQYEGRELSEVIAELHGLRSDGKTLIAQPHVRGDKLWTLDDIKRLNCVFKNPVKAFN
Sequence of MMOH (P18798 2-389, further chain): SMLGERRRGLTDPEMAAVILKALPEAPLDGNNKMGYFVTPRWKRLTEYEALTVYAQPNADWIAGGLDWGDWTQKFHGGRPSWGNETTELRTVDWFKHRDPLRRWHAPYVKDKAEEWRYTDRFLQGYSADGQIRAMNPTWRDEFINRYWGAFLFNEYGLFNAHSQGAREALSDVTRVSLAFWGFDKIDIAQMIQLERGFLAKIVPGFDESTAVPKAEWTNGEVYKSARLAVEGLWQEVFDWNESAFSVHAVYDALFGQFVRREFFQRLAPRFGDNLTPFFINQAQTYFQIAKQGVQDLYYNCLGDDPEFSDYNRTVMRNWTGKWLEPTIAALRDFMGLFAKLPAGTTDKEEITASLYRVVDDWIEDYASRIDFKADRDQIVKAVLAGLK
Sequence of MMOH (P11987 2-170, further chain): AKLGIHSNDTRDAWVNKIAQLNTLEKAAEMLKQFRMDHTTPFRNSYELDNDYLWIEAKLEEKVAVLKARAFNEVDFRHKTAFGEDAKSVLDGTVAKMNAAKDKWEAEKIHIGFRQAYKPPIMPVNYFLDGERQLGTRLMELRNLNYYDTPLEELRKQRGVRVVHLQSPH
Sequence of MMOB (Methylococcus capsulatus) (P18797 whole entry): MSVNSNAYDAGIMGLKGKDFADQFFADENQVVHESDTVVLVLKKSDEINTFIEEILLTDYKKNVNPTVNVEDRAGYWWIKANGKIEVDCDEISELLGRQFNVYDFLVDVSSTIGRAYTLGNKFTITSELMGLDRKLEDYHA

With MMOH (from UniProt P22869), the figures for the Kd in data set [1] and in data set [2] were 550 nM and 900 nM, respectively.
